Reference: paper PMC3936608 (Pain, 2013)

Target: the molecule itself
Experiment: SDS-PAGE + SEC

B1: Rat artemin (113 amino acids) (ligand, UniProt Q6AYE8 112-224, looked up)
chain: AGTRSSRARATDARGCRLRSQLVPVSALGLGHSSDELIRFRFCSGSCRRARSPHDLSLASLLDAGALRSPPGSRPISQPCCRPTRYEAVSFMDVNSTWRTVDHLSATACGCLG
For B1, the “stoichiometry N” value was 2.
